According to the supplement of paper PMC9170038:

Test system: MS2 coat protein
Assay: apparent KD of MS2 coat protein; designed switch direction (-1 OFF switch, 1 ON switch): -1; higher = weaker reporter binding
In short: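 The buffer was Tris-HCl pH 7.5 with KCl, MgCl2, BSA, DTT, tRNA and Tween-20. In it, SNAP-549-labelled MS2 coat protein was titrated in doubling steps from 0.7 or 1.5 nM to 3 µM over chip-bound RNA switches transcribed by stalled E. coli RNA polymerase on Illumina chips. Apparent KD is the per-design median over clusters of curve fits to normalised fluorescence.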

[1] = Eterna round: R95, input ligand: microRNA oligo, concentration not stated
[2] = Eterna round: R95, input ligand: FMN 200 uM
[3] = Eterna round: R95, input ligand: none

| Sequence | apparent KD of MS2 coat protein (input ligand: FMN 200 uM) | apparent KD of MS2 coat protein (input ligand: none) | apparent KD of MS2 coat protein (input ligand: microRNA oligo, concentration not stated) | apparent KD of MS2 coat protein [1] | apparent KD of MS2 coat protein [2] | apparent KD of MS2 coat protein [3] |
| --- | --- | --- | --- | --- | --- | --- |
| CUCUGCACGCUGCGGUCCUACAUGAGGAUCACCCAUGUGGUCUGGUGGCGUGGGUCACCGGACUUGGCUCGUCUUGC [salish99_S_TOV1_R5_051] (Eterna round: R97, puzzle: Sensor, turn-off variant 1) | 21 nM | 22.7 nM | – | – | – | – |
| CUCUUAUCUUAGGAUAUUUUACCGCAAGUGGUGGGAGAAGGGAGCACAUGAGGAUCACCCAUGUUAGCUGGGCU [Eternabot (L2) Solution 19] (Eterna round: R97, puzzle: Exclusion 6) | 22.1 nM | 20.5 nM | – | – | – | – |
| CUCUUGGCAGGAUAUGCAAUUUUAGACAUGAGGAUCACCCAUGUGAUCAUUCCAUAUUAUGCAGAAGGGCCUAAAC [JR_E5_Sub049] (Eterna round: R96, puzzle: Exclusion 5) | 238 nM | 39.2 nM | 27.4 nM | – | – | – |
| CUCUUGGCAGGAUAUGCAAUUUUAGACAUGAGGAUCACCCAUGUGAUCAUUCCAUAUUAUGCAGAAGGGCCUAAAC [JR_E5_Sub049] (puzzle: Exclusion 5) | – | – | – | 54.3 nM | – | – |
| CUCUUGUUAGGAUAUCAAACCAGCGGCGGAACCGCUGGAAGUGAGAAGGGACAUGAGGAUCACCCAUGUAAGAA [Usrebiis] (puzzle: Exclusion 4) | – | – | – | 39.3 nM | 161 nM | 64.8 nM |
| CUCUUGUUAGGAUAUCAAACCGGCGGCGGAGCCACCGGAAGUGAGAAGGGACAUGAGGAUCACCCAUGUAAGAA [Islaariste] (puzzle: Exclusion 4) | – | – | – | 60.9 nM | 220 nM | 67.3 nM |
| CUGAACAUAGGAUAUACAUGAGGAUCACCCAUGUAUAUAAAAGGGUGUUCCAACUAAAGUAGAAGGAUGUAUAG [ExFusion 4 - Jieux - Exclusion 3] (Eterna round: R97, puzzle: Exclusion 3) | 45.1 nM | 57.8 nM | – | – | – | – |
| CUGAGCAGACGGAAAUCCAACAUGAGGAUCACCCAUGUCUCAAAAGCUUUUUGCUCGUCUUAUCCUCCUCUGUUCUC [Tiardia] (puzzle: Sensor v3, turn-off variant 1) | – | – | – | 138 nM | 24.1 nM | 21.1 nM |
| CUGAGCAGACGGAGAUCCAACAUGAGGAUCACCCAUGUCUCAAAAGCUUUUUGCUCGUCUUAUCCUCCUCUGCUCAC [Geesbeleri] (puzzle: Sensor v3, turn-off variant 1) | – | – | – | 21.8 nM | 11.2 nM | 12.5 nM |
| CUGAGCAGACGGAGAUCCAACAUGAGGAUCACCCAUGUCUCAAAAGCUUUUUGCUUAAACGUCUUAUCUCUGUUCAC [Esquitian 5] (Eterna round: R97, puzzle: Sensor, turn-off variant 1) | 35.7 nM | 33.8 nM | – | – | – | – |
| CUGAGCAGACGGAGAUCCAACAUGAGGAUCACCCAUGUCUCAAAAGCUUUUUGCUUGUCUUACUCUCCUCUGUUCUC [Atenve] (puzzle: Sensor v3, turn-off variant 1) | – | – | – | 103 nM | 13.9 nM | 11.3 nM |
| CUGAGCAGACGGAGAUCCAACAUGAGGAUCACCCAUGUCUCAAAAGCUUUUUGCUUGUCUUAUCCUCCUCUGUUCUC [Xegean] (puzzle: Sensor v3, turn-off variant 1) | – | – | – | 248 nM | 14.6 nM | 12.7 nM |
| CUGAGCAGACGGAGAUCCAACAUGAGGAUCACCCAUGUCUCACAAGCUUUUUGCUUGUCUUAUUCUCCUCUGUUCUC [Leveasodi] (puzzle: Sensor v3, turn-off variant 1) | – | – | – | 16.6 nM | 12.8 nM | 12.1 nM |
| CUGAGCUGAGGAUAUACAUGAGGAUCACCCAUGUAAAGCAGCUUGCGUACAAGCAGAUGUAGAAGGCAGUUCGG [Mod of JL 17 - Jieux - Exclusion 3] (Eterna round: R97, puzzle: Exclusion 3) | 24.1 nM | 14.7 nM | – | – | – | – |
| CUGAGCUGAGGAUAUACAUGAGGAUCACCCAUGUGUUAGAGCUUGCGUACAGGCAGAUGUAGAAGGCAGUUCGG [JL-ex3-3.33 Brourd mod] (puzzle: Exclusion 3) | – | – | – | 14.5 nM | – | – |
| CUGAGGUAAGGAUAUAGGAGAGAAGAUAAGGUAUGAGAGUUCUAGAAGGUACAUGAGGAUCACCCAUGUUAGGG [JR_Exclu4_Sub087] (puzzle: Exclusion 4) | – | – | – | 252 nM | – | – |
| CUGAGGUAGCGGUCCUAUAACAUGAGGAUCACCCAUGUACCUUGCUUCGAGCUUUUAGCUCGUCUUAUGAUUCUCGG [Mat - Sensor v3 - turn-off var 1 - JL Mod - D37] (puzzle: Sensor v3, turn-off variant 1) | – | – | – | 502 nM | 443 nM | 560 nM |
| CUGAGGUAGCGGUCCUAUGACAUGAGGAUCACCCAUGUACCUCGCUACGAGCUUUUUGCUCGUCUUAUAAUUCUCGG [JL Atriat mod 2] (puzzle: Sensor v3, turn-off variant 1) | – | – | – | 141 nM | 573 nM | 643 nM |
| CUGAGGUAGCGGUCCUAUGACAUGAGGAUCACCCAUGUACCUUGCUUCGAGCAUUUUGCUCGUCUUAUGAUUCUCGG [Mat - Sensor v3 - turn-off var 1 - JL Mod - D35] (puzzle: Sensor v3, turn-off variant 1) | – | – | – | 481 nM | 450 nM | 507 nM |
| CUGAGGUAGCGGUCCUAUGACAUGAGGAUCACCCAUGUACCUUGCUUCGAGCUAUUUGCUCGUCUUAUGAUUCUCGG [Mat - Sensor v3 - turn-off var 1 - JL Mod - D34] (puzzle: Sensor v3, turn-off variant 1) | – | – | – | 483 nM | 538 nM | 493 nM |
| CUGAGGUAGCGGUCCUAUGACAUGAGGAUCACCCAUGUACCUUGCUUCGAGCUUUUUGCUCGUCUUAUGAUUCUCGG [JL Atriat mod 5] (puzzle: Sensor v3, turn-off variant 1) | – | – | – | 456 nM | 486 nM | 576 nM |
| CUGAGGUAGCGGUCCUAUGACAUGAGGAUCACCCAUGUACCUUGCUUUGAGCUUAUUGCUCGUCUUAUGAUUCUCGG [Mat - Sensor v3 - turn-off var 1 - JL Mod - D41] (puzzle: Sensor v3, turn-off variant 1) | – | – | – | 299 nM | 399 nM | 460 nM |
